Assay results taken from patent US10365283B2, “Activated HER3 as a marker for predicting therapeutic efficacy” (U3 PHARMA GMBH, priority 2006, dated 2019).

Molecular target: T1, pHer3 in BxPC3 and Calu-3 xenografts (Homo sapiens, UniProt P21860)
T1 construct: on FFPE sections of BxPC3 xenografts; endogenous in cells; host or cells: BxPC3 (pancreas cancer) and Calu-3 (NSCLC) human tumour cells grown as xenografts in mice
Assay: Immunohistochemical staining with anti-pHer3 antibody 21D3 on FFPE sections of xenograft tumours after antibody administration
Format: in vivo
Conditions: FIGS. 7, 8 and 11, versus control IgG1
Protocol: FIG. 7: Immunohistochemical staining with rabbit monoclonal anti-p Her3 antibody (Cell Signalling 21D3, Lot 4 1:650 dilution, 0.074 ug/ml) on FFPE sections of BxPC3 xenografts, 20×. • (A) and (B) Tumour after administration of control IgG1 500 μg/mouse • (C) and (D) Tumour after administration of antibody U3-1287 500 μg/mouse • Stainings were done in duplicate on three independent xenografts.
FIG. 8: Immunohistochemical staining with rabbit monoclonal anti-pHer3 antibody (Cell Signalling 21D3, Lot 4 1:650 dilution, 0.074 ug/ml) on FFPE sections of BxPC3 xenografts, 20×. • (A) Tumour after administration of antibody U3-1287 25 μg/mouse • (B) Tumour after administration of antibody […] 100 μg/mouse • (C) Tumour after administration of antibody U3-1287 200 μg/mouse • (D) Tumour after administration of antibody U3-1287 500 μg/mouse • (E) Tumour after administration of control IgG1 500 μg/mouse. • Stainings were done in duplicate on three independent xenografts.
FIG. 11: Immunohistochemical staining with rabbit monoclonal anti pHer3 antibody (Cell Signalling 21D3, Lot 4 1:8000 dilution, 0.006 ug/ml) on FFPE sections Calu-3 xenografts, 40×. • (A) and (B) Tumour after administration of control IgG1 25 mg/kg 72 h • (C) and (D) Tumour after administration of antibody U3-1287 25 mg/kg 72 h • Stainings were done in duplicate on five independent xenografts.
Using a microtome, 2-4 μm thin sections were cut, mounted on silanized glass slides and dried at 60° C. for 30 minutes and at 38° C. overnight. Deparaffinisation and rehydration of the specimen was achieved by incubating 2×5 minutes in Xylol, 2×2 minutes in 100% ethanol and 2 minutes each in 96%, 80% and 70% ethanol. After rinsing 20 seconds in distilled water, the slides were incubated for two minutes in PBS. […]
The anti-tumor efficacy of a HER modulator were evaluated in human xenograft tumor studies. In these studies, human tumors were grown as xenografts in immunocompromised mice and therapeutic efficacy was measured by the degree of tumor growth inhibition in response to administrations of the HER modulator. […]

anti-HER3 antibody: anti-HER3 antibody U3-1287 administered to mice bearing BxPC3 or Calu-3 xenografts
reduction: membrane staining intensity (pHer3) | pHer3 positive cells compared to whole cell number in the tumour | tumour cells compared to whole cell number in the tumour
